Like-named read-outs stand apart in the source and are kept apart here.
What was measured:
[1] = target: human TSH receptor (wild type), expressed on transfected CHO cells (human) (UniProt P16473); test: cell-based or functional assay
[2] = target: human TSHR (thyroid stimulating hormone receptor) expressed in transfected CHO cells (human) (UniProt P16473); test: cell-based or functional assay
[3] = target: human TSHR (wild type, full length) expressed in CHO cells (human) (UniProt P16473); test: cell-based or functional assay
[4] = target: human TSHR expressed in CHO cells (human) (UniProt P16473); test: cell-based or functional assay
[5] = target: human TSHR (wild type, full length) expressed in CHO cells (human) (UniProt P16473); test: cell-based or functional assay; remark: listed apart in the source
[6] = target: TSHR260-alkaline phosphatase (TSHR260-AP) (human) (UniProt P05187); test: TSHR260-AP bridge ELISA, full length TSHR on wells; 100 µg/mL, diluted in HBD
[7] = target: TSHR260-alkaline phosphatase (TSHR260-AP) (human) (UniProt P05187); test: TSHR260-AP bridge ELISA, full length TSHR on wells; 0.05 µg/mL, diluted in HBD
[8] = target: TSHR260-alkaline phosphatase (TSHR260-AP) (human) (UniProt P05187); test: TSHR260-AP bridge ELISA, full length TSHR on wells; 10 µg/mL, diluted in assay buffer
[9] = target: TSHR260-alkaline phosphatase (TSHR260-AP) (human) (UniProt P05187); test: TSHR260-AP bridge ELISA, full length TSHR on wells; 0.5 µg/mL, diluted in assay buffer
[10] = target: TSHR260-alkaline phosphatase (TSHR260-AP) (human) (UniProt P05187); test: TSHR260-AP bridge ELISA, full length TSHR on wells; 0.01 µg/mL, diluted in assay buffer
TSHR260-AP (human) [11] = test: TSHR260-AP bridge ELISA (full length TSHR on wells, TSHR260-AP in solution); IgG 1 µg/mL diluted in HBD serum
TSHR260-AP (human) [12] = test: TSHR260-AP bridge ELISA (full length TSHR on wells, TSHR260-AP in solution); IgG 10 µg/mL diluted in HBD serum
TSHR260-AP (human) [13] = test: TSHR260-AP bridge ELISA (full length TSHR on wells, TSHR260-AP in solution); IgG 0.5 µg/mL diluted in HBD serum
TSHR260-AP (human) [14] = test: TSHR260-AP bridge ELISA (full length TSHR on wells, TSHR260-AP in solution); IgG 250 µg/mL diluted in HBD serum
TSHR260-AP (human) [15] = test: TSHR260-AP bridge ELISA (full length TSHR on wells, TSHR260-AP in solution); IgG 0.1 µg/mL diluted in assay buffer
TSHR260-AP (human) [16] = test: TSHR260-AP bridge ELISA (full length TSHR on wells, TSHR260-AP in solution); IgG 0.05 µg/mL diluted in assay buffer

B1: 5C9 IgG (antibody, from another filing, V domains shown)
VH: EVQLVESGGGLIQPGGSLRLSCAASGFTVSSNYMSWVRQAPGKGLEWVSVTYSGGSTSYADSVKGRFTISRDNSKNTLYLQMNSLRAEDTAVYYCARGGRYCSSISCYARSGCDYWGQGTLVTVSS
VL: AIQMTQSPSSLSASVGDRVTITCRASQSISNYLNWYQQKPGKAPKLLIYAASSLQSGVPSRFSGSGSGTDFTLTISSLQPEDFATYYCQQSYSSPSTTFGQGTKLEIK
**Q.** Which Cyclic AMP concentration; pTSH 3 ng/mL + 0.001 µg/mL 5C9 [1] does the source give for B1 here?
**A.** 64.1 pmol/mL

**Q.** And the Cyclic AMP concentration; pTSH 3 ng/mL + 0.01 µg/mL 5C9 [1]?
**A.** 64.6 pmol/mL

**Q.** What about the Cyclic AMP concentration; pTSH 3 ng/mL + 0.1 µg/mL 5C9 [1] of the same binder?
**A.** 13.7 pmol/mL

**Q.** What about the Cyclic AMP concentration; pTSH 3 ng/mL + 1 µg/mL 5C9 [1] of the same binder?
**A.** 4.2 pmol/mL

**Q.** What about the Cyclic AMP concentration; pTSH 3 ng/mL + 10 µg/mL 5C9 [1] of the same binder?
**A.** 1.3 pmol/mL

**Q.** And the Cyclic AMP concentration; pTSH 3 ng/mL + 100 µg/mL 5C9 [1]?
**A.** 0.5 pmol/mL

**Q.** What about the Cyclic AMP production (constitutive activity); 0.1 µg/mL 5C9 IgG [1] of the same binder?
**A.** 68.2 pmol/mL

**Q.** And the Cyclic AMP production (constitutive activity); 0.2 µg/mL 5C9 IgG [1]?
**A.** 58.8 pmol/mL

**Q.** And the Cyclic AMP production (constitutive activity); 1 µg/mL 5C9 IgG [1]?
**A.** 31.4 pmol/mL

**Q.** And the Cyclic AMP production (constitutive activity); 2 µg/mL 5C9 IgG [1]?
**A.** 31.8 pmol/mL

**Q.** What about the % Inhibition; 3 ng/mL M22 IgG + 0.001 µg/mL 5C9 IgG [2] of the same binder?
**A.** 7.7%

**Q.** What about the % Inhibition; 3 ng/mL M22 IgG + 0.01 µg/mL 5C9 IgG [2] of the same binder?
**A.** 25.2%

**Q.** What about the % Inhibition; 3 ng/mL M22 IgG + 0.1 µg/mL 5C9 IgG [2] of the same binder?
**A.** 92.8%

**Q.** What about the % Inhibition; 3 ng/mL M22 IgG + 1 µg/mL 5C9 IgG [2] of the same binder?
**A.** 97.1%

**Q.** What about the % Inhibition; 3 ng/mL M22 IgG + 10 µg/mL 5C9 IgG [2] of the same binder?
**A.** 94.4%

**Q.** And the % Inhibition; 3 ng/mL M22 IgG + 100 µg/mL 5C9 IgG [2]?
**A.** 97.1%

**Q.** And the Cyclic AMP concentration; 3 ng/mL M22 IgG + 0.001 µg/mL 5C9 IgG [2]?
**A.** 41 pmol/mL

**Q.** And the Cyclic AMP concentration; 3 ng/mL M22 IgG + 0.01 µg/mL 5C9 IgG [2]?
**A.** 33.2 pmol/mL

**Q.** And the Cyclic AMP concentration; 3 ng/mL M22 IgG + 0.1 µg/mL 5C9 IgG [2]?
**A.** 3.2 pmol/mL

**Q.** And the Cyclic AMP concentration; 3 ng/mL M22 IgG + 1 µg/mL 5C9 IgG [2]?
**A.** 1.3 pmol/mL

**Q.** And the Cyclic AMP concentration; 3 ng/mL M22 IgG + 10 µg/mL 5C9 IgG [2]?
**A.** 2.5 pmol/mL

**Q.** And the Cyclic AMP concentration; 3 ng/mL M22 IgG + 100 µg/mL 5C9 IgG [2]?
**A.** 1.3 pmol/mL

**Q.** What about the Cyclic AMP concentration; 100 µg/mL 5C9 IgG [2] of the same binder?
**A.** 1.7 pmol/mL

**Q.** What about the % Inhibition of T5 serum stimulation; 0.01 µg/mL 5C9 IgG [3] of the same binder?
**A.** 17.2%

**Q.** What about the % Inhibition of T5 serum stimulation; 0.1 µg/mL 5C9 IgG [3] of the same binder?
**A.** 91.2%

**Q.** What about the % Inhibition of T5 serum stimulation; 1 µg/mL 5C9 IgG [3] of the same binder?
**A.** 97.8%

**Q.** What about the % Inhibition of T5 serum stimulation; 10 µg/mL 5C9 IgG [3] of the same binder?
**A.** 98.9%

**Q.** And the % Inhibition of T5 serum stimulation; 100 µg/mL 5C9 IgG [3]?
**A.** 98.9%

**Q.** What about the Cyclic AMP concentration; 0.01 µg/mL 5C9 IgG + T5 [3] of the same binder?
**A.** 52.9 pmol/mL

**Q.** And the Cyclic AMP concentration; 0.1 µg/mL 5C9 IgG + T5 [3]?
**A.** 5.6 pmol/mL

**Q.** And the Cyclic AMP concentration; 1 µg/mL 5C9 IgG + T5 [3]?
**A.** 1.4 pmol/mL

**Q.** And the Cyclic AMP concentration; 10 µg/mL 5C9 IgG + T5 [3]?
**A.** 0.7 pmol/mL

**Q.** What about the Cyclic AMP concentration; 100 µg/mL 5C9 IgG + T5 [3] of the same binder?
**A.** 0.7 pmol/mL

**Q.** What about the Cyclic AMP concentration; 100 µg/mL 5C9 IgG alone [3] of the same binder?
**A.** 1.1 pmol/mL

**Q.** And the % Inhibition; 5C9 IgG 0.003 µg/mL + 3 ng/mL pTSH [4]?
**A.** 10.4%

**Q.** What about the % Inhibition; 5C9 IgG 0.0075 µg/mL + 3 ng/mL pTSH [4] of the same binder?
**A.** 76.5%

**Q.** What about the % Inhibition; 5C9 IgG 0.01 µg/mL + 3 ng/mL pTSH [4] of the same binder?
**A.** 1%

**Q.** What about the % Inhibition; 5C9 IgG 0.025 µg/mL + 3 ng/mL pTSH [4] of the same binder?
**A.** 26%

**Q.** And the % Inhibition; 5C9 IgG 0.05 µg/mL + 3 ng/mL pTSH [4]?
**A.** 62.8%

**Q.** What about the % Inhibition; 5C9 IgG 0.1 µg/mL + 3 ng/mL pTSH [4] of the same binder?
**A.** 81.8%

**Q.** What about the % Inhibition; 5C9 IgG 0.3 µg/mL + 3 ng/mL pTSH [4] of the same binder?
**A.** 87.5%

**Q.** What about the % Inhibition; 5C9 IgG 1 µg/mL + 3 ng/mL pTSH [4] of the same binder?
**A.** 92.3%

**Q.** And the % Inhibition; 5C9 IgG 3 µg/mL + 3 ng/mL pTSH [4]?
**A.** 92.8%

**Q.** What about the % Inhibition of T8 serum stimulation; 0.01 µg/mL 5C9 IgG [5] of the same binder?
**A.** 0%

**Q.** What about the % Inhibition of T8 serum stimulation; 0.1 µg/mL 5C9 IgG [5] of the same binder?
**A.** 91%

**Q.** And the % Inhibition of T8 serum stimulation; 1 µg/mL 5C9 IgG [5]?
**A.** 96%

**Q.** And the % Inhibition of T8 serum stimulation; 10 µg/mL 5C9 IgG [5]?
**A.** 97%

**Q.** What about the % Inhibition of T8 serum stimulation; 100 µg/mL 5C9 IgG [5] of the same binder?
**A.** 97%

**Q.** And the Cyclic AMP concentration; 0.01 µg/mL 5C9 IgG + T8 [5]?
**A.** 53.7 pmol/mL

**Q.** And the Cyclic AMP concentration; 0.1 µg/mL 5C9 IgG + T8 [5]?
**A.** 4.6 pmol/mL

**Q.** What about the Cyclic AMP concentration; 1 µg/mL 5C9 IgG + T8 [5] of the same binder?
**A.** 2.2 pmol/mL

**Q.** What about the Cyclic AMP concentration; 10 µg/mL 5C9 IgG + T8 [5] of the same binder?
**A.** 1.7 pmol/mL

**Q.** What about the Cyclic AMP concentration; 100 µg/mL 5C9 IgG + T8 [5] of the same binder?
**A.** 1.7 pmol/mL

**Q.** What about the Cyclic AMP concentration; 100 µg/mL 5C9 IgG alone [5] of the same binder?
**A.** 1.2 pmol/mL

**Q.** What about the Mean absorbance at 405 nm (absorbance at 405 nm) [6] of the same binder?
**A.** 0.027

**Q.** What about the Mean absorbance at 405 nm (absorbance at 405 nm) [7] of the same binder?
**A.** -0.003

**Q.** What about the Mean absorbance at 405 nm (absorbance at 405 nm) [8] of the same binder?
**A.** 0.099

**Q.** And the Mean absorbance at 405 nm (absorbance at 405 nm) [9]?
**A.** -0.005

**Q.** And the Mean absorbance at 405 nm (absorbance at 405 nm) [10]?
**A.** -0.001

**Q.** And the Mean absorbance at 405 nm (absorbance at 405 nm) (TSHR260-AP (human) [11])?
**A.** 0.045

**Q.** And the Mean absorbance at 405 nm (absorbance at 405 nm) (TSHR260-AP (human) [12])?
**A.** 0.004

**Q.** And the Mean absorbance at 405 nm (absorbance at 405 nm) (TSHR260-AP (human) [13])?
**A.** 0.016

**Q.** What about the Mean absorbance at 405 nm (absorbance at 405 nm) (TSHR260-AP (human) [14]) of the same binder?
**A.** 0.058

**Q.** What about the Mean absorbance at 405 nm (absorbance at 405 nm) (TSHR260-AP (human) [15]) of the same binder?
**A.** -0.013

**Q.** And the Mean absorbance at 405 nm (absorbance at 405 nm) (TSHR260-AP (human) [16])?
**A.** -0.008

Source: US20110300138A1 (published 2011)
